We go through six molecules from patent US20230303681A1 (published 2023).

Changes are numbered by the printed parent chain. Where “and” joins values, the source holds several entries; their conditions need not be identical. Equal entries are not always repeated.

Assay [1] addresses T1, human TMEM106B (human, UniProt Q9NUM4 2-274).
T1 construct: Full-length, on transiently transfected HEK293 cells, or natively expressed on HeLa, U251 and A549 cells; also called huTMEM106B; huTMEM
Nature of the assay: FACS HEK+huTMEM, 0.01 ug/ml.

In assay [2] the target is T2, GST-fusion human TMEM106B truncated (human).
T2 construct: also called GST-TMEM106B-truncated protein; GST-TMEM106B (truncated)
The experiment in a line: array SPR, Ab immobilised.

Assay [3] has as its target T1, human TMEM106B. Nature of the assay: FACS U251.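 Further: flow cytometry of cells exposed to antibody (purified at 10 µg/mL, or hybridoma supernatant) for 1 h on ice, with propidium iodide-positive dead cells gated out.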
Assay [4] deals with T3, cynomolgus (cyno) TMEM106B (cynomolgus, UniProt Q9NUM4 2-274 (human entry)).
T3 construct: on transiently transfected HEK293 cells
The experiment in a line: FACS, HEK293 transfectants.
Procedure: (§1) For screening of the hybridoma cell culture supernatants, humanTMEM106B-transfected HEK293 cells were aliquoted in 96-well round bottom plates (2x10^5 cells per well) and incubated with 50 µL of hybridoma cell culture supernatant on ice for 30 minutes. […] Median fluorescence intensity (MFI) of anti-mouse-APC MFI on TMEM106B+ HEK293 cells was calculated for each clone, and those displaying a signal of at least 2-fold over background compared to a secondary-antibody only well were taken forward for further analysis and characterization.

Assay [5] concerns the target T4, mouse TMEM106B (mouse, UniProt Q80X71 2-275).
T4 construct: on transiently transfected HEK293 cells, or natively expressed on mouse Neuro2a cells; also called moTMEM106B; murine TMEM106B
Nature of the assay: FACS, HEK293 transfectants. For orientation: In flow cytometry, cells or beads pass a laser one at a time.
Procedure: as §1

For assay [6], the target named is T1, human TMEM106B. Nature of the assay: FACS, HEK293 transfectants.
Procedure: as §1
In assay [7] the target is T1, human TMEM106B. Nature of the assay: FACS A549, 1 ug/ml.
In assay [8] the target is T1, human TMEM106B. The experiment in a line: FACS, HEK293 transfectants. The source holds these as a separate data set.
Procedure: Initial screening of the anti-TMEM106B hybridomas was performed as follows.
For screening of the hybridoma cell culture supernatants, humanTMEM106B-transfected HEK293 cells were aliquoted in 96-well round bottom plates (2x10^5 cells per well) and incubated with 50 µL of hybridoma cell culture supernatant on ice for 30 minutes. […] Cell sorting was performed on a FACS Canto system (BD Biosciences) or iQue (Intellicyt), with sort gates drawn to exclude dead (i.e., propidium iodide-positive) cells. Median fluorescence intensity (MFI) of anti-mouse-APC MFI on TMEM106B+ HEK293 cells was calculated for each clone, and those displaying a signal of at least 2-fold over background compared to a secondary-antibody only well were taken forward for further analysis and characterization.
The target in assay [9] is T1, human TMEM106B. The experiment in a line: FACS A549.
The target of assay [10] is T1, human TMEM106B. The experiment in a line: FACS HeLa.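 Further: flow cytometry of cells incubated with hybridoma supernatant or purified antibody at 10 µg/ml for 1 h on ice, propidium iodide–positive dead cells gated out.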
Assay [11] addresses T1, human TMEM106B. The experiment in a line: FACS HEK+huTMEM, 0.1 ug/ml.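 Further: flow cytometry binding of purified mouse IgG antibodies to HEK293 cells transiently expressing TMEM106B, read as median fluorescence intensity with propidium iodide positive dead cells gated out.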
Assay [12] addresses T5, GST (Pierce) (UniProt P08515 1-218 = GST, limits assumed).
T5 construct: control for the GST part of the fusion protein; also called GST protein; Glutathione-S-transferase
Nature of the assay: ELISA, coated GST.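 Further: ELISA on plates coated with GST alone at 1-10 µg/ml, antibodies applied at 100-1000x dilution, bound antibody detected by peroxidase substrate colour after acid stop.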 A general note: ELISA stands for enzyme-linked immunosorbent assay.
Procedure: (§2) Briefly, 96-well polystyrene plates were coated with 1-10 µg/ml of recombinant GST-TMEM106B-truncated protein or GST (Pierce) in PBS either at 370 Cfor 1-4 hours or overnight at 4 °C. Coated plates were then blocked with 5% BSA for 1-hour, washed 3×150 µL in TBST (Tris-buffered saline + 0.1% Tween20), and then the antibodies were added at various dilutions (100-1000x) in PBS. After 1-hour incubation (room temperature, with shaking), the plates were washed 3x150 µL in TBST. […] After a final set of washes (3×150µL in TBST), 100 µL of peroxidase substrate was added for 1 minute; the reaction was then quenched with 2N sulfuric acid (100 µL).

In assay [13] the target is T1, human TMEM106B. The experiment in a line: FACS A549, 10 ug/ml.
Procedure: (§3) Purified anti-TMEM106B antibodies were evaluated for their binding affinity to various TMEM106B-expressing cell lines including HEK293 transiently transfected with human/cyno/mouse TMEM106B, as well as HeLa cells and A549 cells. Antibodies tested for this experiment were mouse IgGs purified from hybridoma supernatant. Affinity binding to cells was determined as follows. Briefly, 1x10^5 cells were aliquoted per well in 96-well round bottom plates and incubated with 50 µL of purified anti-TMEM106B antibody at various concentrations (10x dilutions starting at 10 µg/ml) in FACS buffer (PBS + 2% FBS + 1 mM EDTA). […] Sorting was performed on a iQue (Intellicyt), with sort gates drawn to exclude dead (propidium iodide +) cells. Binding data was analyzed using median fluorescent intensity (MFI) and graphed in Prism. Values presented are MFI.
The target in assay [14] is T1, human TMEM106B. Nature of the assay: FACS HEK+huTMEM, 1.0 ug/ml.
Procedure: as §3
Assay [15] addresses T4, mouse TMEM106B. Nature of the assay: FACS Neuro2a.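 Further: flow cytometry of cells stained with antibody or hybridoma supernatant (purified antibody at 10 µg/ml) for 1 h on ice, propidium iodide–positive dead cells gated out.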
Procedure: All cells were cultured in either T75 or T150 flasks. […] The enzyme was quenched by addition of fresh media, and the cells were then distributed into 96-well plates for FACS analysis.
FACS analysis was performed as follows. Each cell type was aliquoted in 96-well round bottom plates (2x10^5 cells per well), washed once with FACS buffer (PBS + 2% FBS + 1 mM EDTA), and incubated with 50 µL of hybridoma supernatant or purified antibody (10 µg/ml in FACS buffer) on ice for 1 hour. […] Following this secondary incubation, the cells were again washed 2x with ice-cold FACS buffer and resuspended in a final volume of 50 µL of FACS buffer + 0.25 µl/well propidium iodide (Fisher Scientific # BDB556463). Analysis was performed on a FACSCanto system (BD Biosciences) or iQue (Intellicyt), with sort gates drawn to exclude dead (i.e., propidium iodide positive) cells.
Data is presented as mean fluorescence intensity (MFI).
The target in assay [16] is T1, human TMEM106B. Nature of the assay: FACS HEK+huTMEM, 10 ug/ml.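 Further: purified mouse IgG antibodies at 10 µg/ml bound to HEK293 cells transiently expressing human TMEM106B, measured by flow cytometry as median fluorescence intensity of propidium iodide negative live cells.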
Assay [17] addresses T1, human TMEM106B. The experiment in a line: FACS titration on cells, apparent.
Procedure: as §3
For assay [18], the target named is T2, GST-fusion human TMEM106B truncated. The experiment in a line: ELISA, supernatant.
Procedure: as §2
For assay [19] the target is unchanged. The experiment in a line: epitope binning, array SPR (Community 3, Bin 5).
Procedure: Epitope binning of the anti-TMEM106B antibodies was performed by Carterra (Salt Lake City, Nevada, USA) using a pre-mix epitope binning approach.
The target of assay [20] is T5, GST (Pierce). The experiment in a line: array SPR, Ab immobilised.

The koff is a measure of how fast the partners let go of each other. A higher koff goes with a short-lived complex. Usually kon stands for the second-order rate constant of association. Higher therefore signals fast association.
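Wherever fold over negative controls is given: hybridoma supernatants incubated 30 min on ice with human TMEM106B-expressing HEK293 cells, binding read as anti-mouse-APC median fluorescence on live cells, relative to secondary-antibody-only wells.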
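Wherever fold-change over parental HEK293 is given: flow cytometry binding of hybridoma supernatants to HEK293 cells transiently expressing human, cyno or mouse TMEM106B, read as anti-mouse-APC median fluorescence, live cells only, 30 min on ice.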
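Wherever koff is given: antibodies amine-coupled on an MX-96 chip, antigen flowed at 500 nM top concentration in 5-fold serial dilutions, GST alone run as nonspecific-binding control, duplicate measurements.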
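Wherever kon is given: antibodies amine-coupled on an MX-96 chip, antigen flowed at 500 nM top concentration in 5-fold serial dilutions, GST alone run as nonspecific-binding control, duplicate measurements.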

B1: anti-TMEM106B antibody TM-1 (antibody, V domains shown)
VH: QVQLQQSGAELVRPGTSVKVSCKASGYAFTNYLIEWVKQRPGQGLEWIGVINPGSGGTKYNEKLKGKATLTADKSSSTAYMQLSSLTSVDSAVYFCARRGYTIYDFYAMDYWGQGTSVTVSS
VL: DVLMTQTPLSLPVSLGDHASISCRSSQSIVYNNGNTYLEWYLQKPGQSPKLLIYKVSNRFSGVPDRFSGSGSGTDFTLKISRVEAEDLGVYYCFQVSHVPFTFGSGTKLEIK
Take B1: the MFI in assay [1] turned out to be 655; in assay [3], 244; in [7], 364; in assay [9], 1460; in [10], 253; in assay [11] it was 1330. Further, the MFI in [13] was found to be 409; in assay [14], 2010; in assay [15], 253; in assay [16], 2380. Also, the Kd in assay [2] was 14 nM and 13 nM; in assay [17] it was about 1 nM. Moreover, the koff in assay [2] is 0.00057 s⁻¹ and 0.00069 s⁻¹. Further, the kon in assay [2] is 40000 M⁻¹ s⁻¹ and 52000 M⁻¹ s⁻¹. Further, the entries for the “fold-change over parental HEK293” value in assay [4], in assay [5] and in [6] were 11.7 fold, 4.61 fold and 4.72 fold, respectively. Moreover, the “fold over negative controls” value in assay [8] is over 2 fold. In addition, in [12], the binding result was “no binding”.

B2: anti-TMEM106B antibody TM-22 (antibody, V domains shown)
VH: QVQLQQSGPELVKPGASVKISCKASGYRFTSYYIHWVKQRPGQGLEWIGWIYPGNGITNYNEKFKGKATLTADTSSSTAYMQLSSLTSEDSAVYYCASPYYGIRNCYFDVWGTGTTVTVSS
VL: B1 VL with S26G, Y31H, N32S, V90I, V96G, F101W, S105G
Regarding B2, the MFI in [1] is 500; in assay [3], 313; in assay [7] it was 399; in assay [9] it was 1570; in assay [10], 408; in assay [11], 833. Further, the MFI was determined as 478 in [13], 2100 in assay [14], 400 in [15] and 3580 in [16]. Also, the binding result is recorded as “binds” in [18] and “no binding” in [12].

B3: anti-TMEM106B antibody TM-19 (antibody, V domains shown)
VH: DVQLQQSGAELVRPGASVKLSCTASGFNIKDYYMYWVKQRPEQGLEWIGRIDPEDGDTENAPKFRGMATMTADTSSNTAYLQLNSLTSEDTAVYYCTTRIGNLYHVMDYWGHGTSVTVSS
VL: B1 VL with H18Q, Y31H, N32S, S48A, Y54D, S57F, V96G
As to B3, the MFI in assay [1] amounted to 3340; in [3], 878; in assay [7] it was 3640; in assay [9] it was 1820; in assay [10] it was 2430; in assay [11], 29800. Besides, the MFI in assay [13] came to 4960; in assay [14] it was 66800; in assay [15], 2140; in assay [16], 79000. The binding result in assay [18] is “binds”; in assay [12] it was “no binding”. Moreover, the “fold-change over parental HEK293” value in assay [4] was 34.9 fold; in [5], 36 fold; in assay [6], 13.8 fold. Moreover, the “fold over negative controls” value in [8] was over 2 fold. In addition, in [17], the Kd is about 1 nM.

B4: anti-TMEM106B antibody TM-18 (antibody, V domains shown)
VH: EVRLQQSGPELVKPGASVKISCKTSGYTFTDYYMNWVKQSHGKSLEWIVNINPNNGDAFYNQKFKGKATLTVDKSSNTAYLDLRSLTSEDSAVYYCAREGQLRLRRVYAMDYWGQGTSVTVSS
VL: DIVLAQSPASLAVSLGQRATISCRASKSVSISVYTYVHWYQQKPGQPPKLLIYLASNLESGVPARFSGSGSGTDFTLNIHPVEEEDAATYYCQHSRELPYTFGGGTKLEIK
Regarding B4, the MFI in assay [1] was 1740; in assay [3], 874; in assay [7], 2620; in assay [9], 1490; in assay [10] it was 1920; in assay [11] it was 10600. The MFI in [13] is 5190; in [14], 67300; in [15], 1930; in assay [16], 71700. Besides, the Kd in assay [2] is 7.3 nM and 11 nM; in [17] it was about 1 nM. The koff in assay [2] was 7.2e-05 s⁻¹ and 9.4e-05 s⁻¹. For the same molecule, in assay [2], the kon is 9900 M⁻¹ s⁻¹ and 8500 M⁻¹ s⁻¹. Further, the “fold-change over parental HEK293” value in assay [4] turned out to be 38.8 fold; in assay [5], 29 fold; in assay [6] it was 18.8 fold. Further, the “fold over negative controls” value in [8] was over 2 fold. The binding result in [12] is reported as “no binding”.

B5: anti-TMEM106B antibody TM-50 (antibody, V domains shown)
VH: QVQLKESGPVLVAPSQSLSITCTVSGFSLTNYGVHWVRQPPGKGLEWLGVIWAGGNTNYNSALMSRLSISKDNSKSQVFLKMNSLQTDDTAMYYCAKEAKLLRSYAMDYWGQGTLVTVSA
VL: DVQMTQTTSSLSASLGDRVTISCRASQDINNYLYWYQQKPDGTVKLLIYYTSMLHSGVPSRFSGSGSGTDYSLTISNLEQEDIATYFCQQGSTLMYTFGGGTKLEIK
notes: mouse IgG from hybridoma
In the case of B5, the MFI in [1] worked out at 294; in assay [3] it was 260; in assay [7], 381; in [9] it was 580; in [10] it was 159; in assay [11] it was 305. In addition, the MFI in [13] is 445; in assay [14], 314; in [15] it was 257; in assay [16], 396. The binding result in [19] is “no binding (tested: 55 nM antigen)”; in assay [20], “no binding”. For the same molecule, the “fold-change over parental HEK293” value in assay [4] amounted to 17.8 fold; in assay [5] it was 17.5 fold; in assay [6], 16 fold. In addition, the “fold over negative controls” value in assay [8] was over 2 fold.

B6: anti-TMEM106B antibody TM-52 (antibody, V domains shown)
VH: QVQLQQPGAELVKPGASVKLSCKASGYTFTNYWMHWVKQRPGQGLDWIGNIDPSDSETHYNQKFKDKATLTVDKVSSTAYMQLSSLTSEDSAVYYCARRGYYGRSPFAYWGQGTLVTVSA
VL: ENVLTQSPAIMSASPGEKVTMTCSASSSVSYMHWYQQKSNTSPKLWIYDTSKLASGVPGRFSGSGSGNSYSLTISSAEAEDVATYYCFQGSGYPLTFGAGTKLELK
notes: mouse IgG from hybridoma
Regarding B6, the MFI in [1] came out at 451; in [3], 341; in assay [7], 401; in assay [9], 987; in assay [10], 227; in assay [11], 1940. The MFI in [13] amounted to 443; in assay [14], 8200; in [15] it was 210; in [16], 7020. The binding result in assay [19] is given as “no binding (tested: 55 nM antigen)”; in assay [20], “no binding”. Also, the “fold-change over parental HEK293” value in assay [4] was 22.6 fold; in assay [5] it was 0.67 fold; in [6] it was 17.3 fold. Moreover, the “fold over negative controls” value in assay [8] is over 2 fold.
